This note sets out measurements from IntAct's records for PubMed 11001931.

Chain of Presenilin-2 (Homo sapiens), P49810 L274A (P49810 whole entry L274A): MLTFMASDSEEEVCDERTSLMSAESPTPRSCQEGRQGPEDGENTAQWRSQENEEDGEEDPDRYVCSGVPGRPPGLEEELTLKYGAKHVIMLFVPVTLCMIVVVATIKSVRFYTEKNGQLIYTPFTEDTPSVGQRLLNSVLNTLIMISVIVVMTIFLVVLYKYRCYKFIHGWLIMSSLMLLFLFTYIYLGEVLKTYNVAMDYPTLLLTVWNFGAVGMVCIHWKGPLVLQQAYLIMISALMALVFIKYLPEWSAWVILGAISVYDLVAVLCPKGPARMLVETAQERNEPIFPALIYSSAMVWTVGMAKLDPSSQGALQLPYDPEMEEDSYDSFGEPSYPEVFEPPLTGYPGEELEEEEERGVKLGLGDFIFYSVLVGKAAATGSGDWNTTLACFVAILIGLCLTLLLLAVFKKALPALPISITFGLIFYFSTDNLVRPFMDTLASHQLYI
Chain of Presenilin-2 (Homo sapiens), P49810 K271A (P49810 whole entry K271A): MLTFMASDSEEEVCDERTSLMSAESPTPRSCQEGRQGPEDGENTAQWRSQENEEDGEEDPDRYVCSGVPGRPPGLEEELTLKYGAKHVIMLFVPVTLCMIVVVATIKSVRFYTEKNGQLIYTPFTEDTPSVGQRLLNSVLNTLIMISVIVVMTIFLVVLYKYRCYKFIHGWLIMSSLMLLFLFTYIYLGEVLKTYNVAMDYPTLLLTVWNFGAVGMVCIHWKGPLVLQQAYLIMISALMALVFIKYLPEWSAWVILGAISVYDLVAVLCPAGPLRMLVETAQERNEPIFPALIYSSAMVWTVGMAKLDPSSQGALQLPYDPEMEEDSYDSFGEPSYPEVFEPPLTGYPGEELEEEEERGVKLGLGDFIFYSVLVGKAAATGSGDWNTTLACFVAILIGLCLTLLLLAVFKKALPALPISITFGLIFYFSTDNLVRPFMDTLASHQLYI
Chain of Presenilin-2 (Homo sapiens), P49810 L277A (P49810 whole entry L277A): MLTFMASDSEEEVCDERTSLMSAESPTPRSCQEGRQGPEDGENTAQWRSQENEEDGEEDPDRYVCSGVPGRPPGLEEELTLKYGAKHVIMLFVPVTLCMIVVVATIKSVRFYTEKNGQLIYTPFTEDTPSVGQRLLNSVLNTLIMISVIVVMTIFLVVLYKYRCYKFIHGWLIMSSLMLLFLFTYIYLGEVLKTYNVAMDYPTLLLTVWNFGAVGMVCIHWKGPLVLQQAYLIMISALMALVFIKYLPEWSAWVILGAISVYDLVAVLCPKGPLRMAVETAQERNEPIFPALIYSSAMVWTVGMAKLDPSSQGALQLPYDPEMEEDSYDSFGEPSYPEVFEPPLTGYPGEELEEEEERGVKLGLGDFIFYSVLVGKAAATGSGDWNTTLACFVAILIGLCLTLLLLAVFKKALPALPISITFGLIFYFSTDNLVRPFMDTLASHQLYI
Chain of Presenilin-2 (Homo sapiens), P49810 R275A (P49810 whole entry R275A): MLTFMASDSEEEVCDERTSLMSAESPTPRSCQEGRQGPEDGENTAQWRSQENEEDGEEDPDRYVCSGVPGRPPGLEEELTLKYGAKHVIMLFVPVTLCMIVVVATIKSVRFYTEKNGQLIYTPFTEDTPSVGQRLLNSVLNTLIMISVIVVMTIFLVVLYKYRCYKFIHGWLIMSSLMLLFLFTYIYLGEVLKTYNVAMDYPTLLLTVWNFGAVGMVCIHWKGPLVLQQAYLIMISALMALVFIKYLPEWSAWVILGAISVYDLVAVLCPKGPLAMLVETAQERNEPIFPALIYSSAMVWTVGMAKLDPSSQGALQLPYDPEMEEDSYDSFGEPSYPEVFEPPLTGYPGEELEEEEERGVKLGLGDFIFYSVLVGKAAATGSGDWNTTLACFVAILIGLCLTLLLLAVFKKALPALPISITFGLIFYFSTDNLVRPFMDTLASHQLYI
Chain of Presenilin-2 (Homo sapiens), P49810 P270A (P49810 whole entry P270A): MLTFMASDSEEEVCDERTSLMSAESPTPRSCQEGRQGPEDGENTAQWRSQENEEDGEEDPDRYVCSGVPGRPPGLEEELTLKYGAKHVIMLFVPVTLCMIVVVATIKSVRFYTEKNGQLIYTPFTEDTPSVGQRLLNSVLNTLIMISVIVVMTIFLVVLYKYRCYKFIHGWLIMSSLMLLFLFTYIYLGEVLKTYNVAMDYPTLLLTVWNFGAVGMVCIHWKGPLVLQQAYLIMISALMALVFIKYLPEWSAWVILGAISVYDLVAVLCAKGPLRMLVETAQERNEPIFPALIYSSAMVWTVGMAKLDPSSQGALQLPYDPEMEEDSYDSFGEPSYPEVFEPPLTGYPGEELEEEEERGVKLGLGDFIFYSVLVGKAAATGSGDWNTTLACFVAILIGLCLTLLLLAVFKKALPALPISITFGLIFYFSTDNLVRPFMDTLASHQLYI
Chain of Presenilin-2 (Homo sapiens), P49810 E279A (P49810 whole entry E279A): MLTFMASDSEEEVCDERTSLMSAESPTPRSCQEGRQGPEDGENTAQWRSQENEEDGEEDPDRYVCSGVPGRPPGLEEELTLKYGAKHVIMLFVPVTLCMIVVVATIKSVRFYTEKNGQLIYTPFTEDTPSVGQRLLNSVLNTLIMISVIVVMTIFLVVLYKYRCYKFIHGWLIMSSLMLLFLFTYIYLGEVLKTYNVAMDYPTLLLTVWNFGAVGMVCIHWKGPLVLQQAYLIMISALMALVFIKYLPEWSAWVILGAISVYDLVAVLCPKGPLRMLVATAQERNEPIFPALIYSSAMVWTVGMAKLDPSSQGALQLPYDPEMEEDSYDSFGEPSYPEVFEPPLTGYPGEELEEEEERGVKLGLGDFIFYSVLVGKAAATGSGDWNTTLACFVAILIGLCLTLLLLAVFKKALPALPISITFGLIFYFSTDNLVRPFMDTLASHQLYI
Chain of Presenilin-2 (Homo sapiens), P49810 P273A (P49810 whole entry P273A): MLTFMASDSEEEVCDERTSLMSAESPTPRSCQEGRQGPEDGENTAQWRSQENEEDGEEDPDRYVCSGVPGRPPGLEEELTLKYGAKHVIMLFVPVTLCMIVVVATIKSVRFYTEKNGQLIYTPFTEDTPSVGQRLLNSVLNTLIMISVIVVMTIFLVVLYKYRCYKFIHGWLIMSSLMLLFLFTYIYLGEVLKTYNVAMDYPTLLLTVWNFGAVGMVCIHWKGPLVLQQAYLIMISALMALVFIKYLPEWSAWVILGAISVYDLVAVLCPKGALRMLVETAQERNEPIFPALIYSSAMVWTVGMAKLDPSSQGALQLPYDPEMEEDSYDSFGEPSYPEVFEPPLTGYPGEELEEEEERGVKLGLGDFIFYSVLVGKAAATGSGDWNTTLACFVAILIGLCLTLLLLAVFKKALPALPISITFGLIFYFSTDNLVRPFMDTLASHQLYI
Chain of Presenilin-2 (Homo sapiens), P49810 G272A (P49810 whole entry G272A): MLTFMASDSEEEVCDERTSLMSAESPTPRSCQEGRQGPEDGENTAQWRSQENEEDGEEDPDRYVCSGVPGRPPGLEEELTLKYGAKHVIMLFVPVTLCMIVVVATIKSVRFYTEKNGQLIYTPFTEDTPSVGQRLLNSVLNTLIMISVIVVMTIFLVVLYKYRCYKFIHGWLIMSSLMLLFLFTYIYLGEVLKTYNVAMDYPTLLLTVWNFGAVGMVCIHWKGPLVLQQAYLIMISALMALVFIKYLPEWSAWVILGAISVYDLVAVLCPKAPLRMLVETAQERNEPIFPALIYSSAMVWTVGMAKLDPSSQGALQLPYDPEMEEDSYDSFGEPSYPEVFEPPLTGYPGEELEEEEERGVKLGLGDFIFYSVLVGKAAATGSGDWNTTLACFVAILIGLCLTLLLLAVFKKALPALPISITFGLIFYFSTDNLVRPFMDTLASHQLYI
Chain of Presenilin-2 (Homo sapiens), P49810 V278A (P49810 whole entry V278A): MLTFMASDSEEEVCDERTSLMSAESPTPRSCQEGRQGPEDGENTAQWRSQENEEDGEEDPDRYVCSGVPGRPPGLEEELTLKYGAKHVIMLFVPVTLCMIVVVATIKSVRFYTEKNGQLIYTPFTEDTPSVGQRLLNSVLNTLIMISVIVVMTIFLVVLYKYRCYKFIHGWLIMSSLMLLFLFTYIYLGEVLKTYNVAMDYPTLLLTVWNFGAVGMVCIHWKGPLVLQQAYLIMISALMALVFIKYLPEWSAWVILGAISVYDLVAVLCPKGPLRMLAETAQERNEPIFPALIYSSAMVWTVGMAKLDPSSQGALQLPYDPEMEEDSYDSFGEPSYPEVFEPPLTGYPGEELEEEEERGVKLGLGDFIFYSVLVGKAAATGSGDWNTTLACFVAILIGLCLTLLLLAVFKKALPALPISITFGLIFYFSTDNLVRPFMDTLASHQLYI
Chain of Presenilin-2 (Homo sapiens), P49810 M276A (P49810 whole entry M276A): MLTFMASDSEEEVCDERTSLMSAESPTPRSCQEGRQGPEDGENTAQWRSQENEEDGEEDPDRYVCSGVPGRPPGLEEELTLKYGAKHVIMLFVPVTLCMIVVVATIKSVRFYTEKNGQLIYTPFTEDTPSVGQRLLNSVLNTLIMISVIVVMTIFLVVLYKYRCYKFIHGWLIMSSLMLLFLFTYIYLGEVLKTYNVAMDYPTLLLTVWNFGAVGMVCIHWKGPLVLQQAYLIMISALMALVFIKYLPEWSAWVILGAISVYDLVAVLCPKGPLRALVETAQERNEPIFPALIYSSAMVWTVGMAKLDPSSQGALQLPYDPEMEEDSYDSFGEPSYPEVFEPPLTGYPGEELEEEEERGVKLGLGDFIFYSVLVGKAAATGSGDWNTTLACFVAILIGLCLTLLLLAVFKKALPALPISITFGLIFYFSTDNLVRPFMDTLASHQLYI

This test deals with fhl2_human FHL2 (UniProt Q14192).
Chain of fhl2_human FHL2 (Q14192 whole entry): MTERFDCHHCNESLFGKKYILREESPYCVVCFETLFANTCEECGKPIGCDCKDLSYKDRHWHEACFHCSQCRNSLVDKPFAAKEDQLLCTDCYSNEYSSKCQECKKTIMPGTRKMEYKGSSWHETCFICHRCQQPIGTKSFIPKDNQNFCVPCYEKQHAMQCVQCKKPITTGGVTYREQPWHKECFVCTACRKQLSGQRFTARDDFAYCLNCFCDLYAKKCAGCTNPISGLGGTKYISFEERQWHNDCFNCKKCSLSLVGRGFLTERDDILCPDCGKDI
Turning to “Presenilin-2 (Homo sapiens), P49810 E279A”, the “effect of a mutation on the interaction” value was “decreasing interaction strength”. Take “Presenilin-2 (Homo sapiens), P49810 G272A”: the “effect of a mutation on the interaction” value is on record as “decreasing interaction strength”.

As for “Presenilin-2 (Homo sapiens), P49810 K271A”, the “effect of a mutation on the interaction” value is “with no effect”. “Presenilin-2 (Homo sapiens), P49810 L274A”: the “effect of a mutation on the interaction” value is on record as “decreasing interaction strength”. Turning to “Presenilin-2 (Homo sapiens), P49810 L277A”, the “effect of a mutation on the interaction” value is listed as “decreasing interaction strength”. Under “Presenilin-2 (Homo sapiens), P49810 M276A” stands “decreasing interaction strength”; under “Presenilin-2 (Homo sapiens), P49810 P270A”, “decreasing interaction strength”; under “Presenilin-2 (Homo sapiens), P49810 P273A”, “decreasing interaction strength”.

“Presenilin-2 (Homo sapiens), P49810 R275A”: the “effect of a mutation on the interaction” value is given as “disrupting interaction strength”. Turning to “Presenilin-2 (Homo sapiens), P49810 V278A”, the “effect of a mutation on the interaction” value is on record as “decreasing interaction strength”.
